Our source for the pKa values is publication PMC3328597.

Data set [1] addresses His161 (UniProt position 161, …). Nature of the data set: NMR. As to conditions: 50 mM NaCl; 20 mM Tris acetate; free Thr171-phosphorylated peptide, no RNA.
Data set [2] deals with His168 (UniProt position 168, …). Put plainly: NMR. As to conditions: 50 mM NaCl; 20 mM Tris acetate; free Thr171-phosphorylated peptide, no RNA.

Usually pKa stands for the negative logarithm of the acid dissociation constant. A higher pKa goes with a weaker acid or stronger base. Regarding HLRQPGIHPKTPNKFKKYSR, the results for the pKa in data set [1] and in data set [2] were 6.4 and 5.6, respectively.
